Assay [1] concerns the target T1, mouse CD73 expressed at the cell surface (mouse, UniProt Q61503 29-551).
T1 construct: whole, on cells; Recombinant cell line expressing mouse CD73; also called moCD73
T1 sequence (looked up): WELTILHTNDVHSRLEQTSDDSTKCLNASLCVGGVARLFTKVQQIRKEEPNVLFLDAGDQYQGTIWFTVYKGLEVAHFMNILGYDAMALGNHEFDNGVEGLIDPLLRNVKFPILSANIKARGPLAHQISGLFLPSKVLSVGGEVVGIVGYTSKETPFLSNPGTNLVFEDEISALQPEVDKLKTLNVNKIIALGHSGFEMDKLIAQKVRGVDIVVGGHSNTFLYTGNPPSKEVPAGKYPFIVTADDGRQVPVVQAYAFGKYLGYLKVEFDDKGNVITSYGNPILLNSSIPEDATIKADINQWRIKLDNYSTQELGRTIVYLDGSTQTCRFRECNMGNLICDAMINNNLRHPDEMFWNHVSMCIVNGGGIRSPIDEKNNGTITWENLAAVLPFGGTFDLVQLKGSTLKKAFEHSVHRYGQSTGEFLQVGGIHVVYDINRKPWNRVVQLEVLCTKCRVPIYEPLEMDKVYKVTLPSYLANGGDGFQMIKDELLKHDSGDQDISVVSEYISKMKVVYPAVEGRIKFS
The assay is described as follows: flow cytometry titration on a cell line expressing mouse CD73. The protocol:
(§1) 10⁵ cells resuspended in PBS/0.2% BSA/0.02% NaN3 (named “staining buffer”) are distributed into round bottom 96W-microplates. Dose-range of anti-CD73 antibodies was added to the plates and cells are incubated for 45 min at 4° C. Cells were washed three times in staining buffer by spinning plates at 400 g for 3 min at 4° C. PE-coupled goat anti-mouse or goat anti-human IgG Fc fragment secondary antibodies (Beckman Coulter) diluted in staining buffer were added to the cells and plates are incubated for 30 additional minutes at 4° C. Cells were washed three times as described above and analyzed on an Accury C6 flow cytometer equipped with an HTFC plate reader.
(§2) Median of fluorescence vs. antibodies concentration was plotted on graphs and EC50 is calculated using GraphPad Prism program.

Assay [2] deals with T2, human CD73 (ecto-5'-nucleotidase) expressed at the cell surface (human, UniProt P21589 27-549).
T2 construct: Used for huCD73-expressing recombinant cell lines, MDA-MB-231 cells (endogenous CD73), HEK-293T cells with wild type CD73, and primary T and B cells; also called huCD73; wild type CD73
T2 sequence: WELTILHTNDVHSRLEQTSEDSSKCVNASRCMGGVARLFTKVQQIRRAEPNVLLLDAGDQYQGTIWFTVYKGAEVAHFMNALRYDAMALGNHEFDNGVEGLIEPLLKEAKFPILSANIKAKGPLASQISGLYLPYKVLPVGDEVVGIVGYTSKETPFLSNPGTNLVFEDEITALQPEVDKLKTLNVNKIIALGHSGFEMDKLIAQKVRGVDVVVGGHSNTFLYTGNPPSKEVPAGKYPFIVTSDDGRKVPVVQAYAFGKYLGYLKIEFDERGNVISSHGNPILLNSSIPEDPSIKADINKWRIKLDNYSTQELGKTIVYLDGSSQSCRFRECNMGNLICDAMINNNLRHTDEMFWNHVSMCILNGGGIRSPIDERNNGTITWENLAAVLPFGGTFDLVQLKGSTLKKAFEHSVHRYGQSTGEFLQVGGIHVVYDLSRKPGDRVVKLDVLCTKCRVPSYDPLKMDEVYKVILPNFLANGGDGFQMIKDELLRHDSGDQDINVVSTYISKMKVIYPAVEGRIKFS
The assay is described as follows: flow cytometry titration on HEK-293T cells transfected with wild type human CD73. The protocol:
Anti-CD73 antibodies are tested for their binding to each mutant by flow cytometry. A first experiment is performed to determine antibodies that lose their binding to one or several mutants at one concentration. To confirm a loss of binding, titration of antibodies is done on antibodies for which binding seemed to be affected by the CD73 mutations (1-0.1-0.01-0.001 μg/ml).
In general terms: In flow cytometry, cells or beads pass a laser one at a time.

Assay [3] concerns the target T3, recombinant human CD73-His extracellular domain protein, soluble dimer (human, UniProt P21589 27-547).
T3 construct: also called huCD73 protein; human recombinant soluble dimeric CD73
T3 sequence: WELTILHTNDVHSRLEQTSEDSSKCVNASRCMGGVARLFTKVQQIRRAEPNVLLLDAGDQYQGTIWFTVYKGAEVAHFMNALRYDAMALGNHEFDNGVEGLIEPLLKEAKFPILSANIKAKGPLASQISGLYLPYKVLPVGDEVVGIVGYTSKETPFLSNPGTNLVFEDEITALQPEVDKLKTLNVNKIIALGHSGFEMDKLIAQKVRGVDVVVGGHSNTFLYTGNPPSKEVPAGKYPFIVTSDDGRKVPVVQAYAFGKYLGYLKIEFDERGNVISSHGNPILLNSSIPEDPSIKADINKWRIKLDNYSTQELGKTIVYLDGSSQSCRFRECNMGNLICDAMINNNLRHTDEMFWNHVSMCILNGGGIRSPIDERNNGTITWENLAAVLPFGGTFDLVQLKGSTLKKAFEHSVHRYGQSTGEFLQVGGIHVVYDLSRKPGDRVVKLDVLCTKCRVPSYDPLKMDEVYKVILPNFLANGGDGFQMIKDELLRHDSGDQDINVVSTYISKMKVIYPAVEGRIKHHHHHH
The assay is described as follows: SPR (Biacore T100, 25 °C), antibody captured on Protein-A, soluble dimeric CD73 injected 1.23 to 300 nM, 1:1 kinetic model, bivalent affinity. The protocol: SPR measurements were performed on a Biacore T100 apparatus (Biacore GE Healthcare) at 25° C. In all Biacore experiments HBS-EP+(Biacore GE Healthcare) and NaOH 10 mM served as running buffer and regeneration buffer respectively. Sensorgrams were analyzed with Biacore T100 Evaluation software. Protein-A was purchase from (GE Healthcare). Human soluble dimeric CD73 proteins were cloned, produced and purified at Innate Pharma.
Protein-A proteins were immobilized covalently to carboxyl groups in the dextran layer on a Sensor Chip CMS. The chip surface was activated with EDC/NHS (N-ethyl-N′-(3-dimethylaminopropyl) carbodiimide hydrochloride and N-hydroxysuccinimide (Biacore GE Healthcare). Protein-A was diluted to 10 μg/ml in coupling buffer (10 mM acetate, pH 5.6) and injected until the appropriate immobilization level was reached (i.e. 2000 RU). Deactivation of the remaining activated groups was performed using 100 mM ethanolamine pH 8 (Biacore GE Healthcare).
Affinity study was carried out according to a standard Capture-Kinetic protocol recommended by the manufacturer (Biacore GE Healthcare kinetic wizard). Serial dilutions of human recombinant soluble dimeric CD73 proteins, ranging from 1.23 to 300 nM were sequentially injected over the captured anti-CD73 antibodies and allowed to dissociate for 10 min before regeneration. […]
Background: In SPR one partner is held on a chip, and binding of the other changes the refractive index at the surface.

Assay [4] deals with T4, cynomolgus CD73 expressed at the cell surface (cynomolgus).
T4 construct: whole, on cells; Recombinant cell line expressing cynomolgus CD73; also called cynoCD73
The assay is described as follows: flow cytometry titration on cynomolgus-CD73-expressing cell line. The protocol:
as §1, §2

Assay [5] has as its target T2, human CD73 (ecto-5'-nucleotidase) …. The experiment in a line: flow cytometry titration on human-CD73-expressing cell line. The protocol: as §1, §2

The values that follow come from patent publication US20190225703A1 (INNATE PHARMA, published 2019).

B1: antibody 7H10 (antibody, human IgG1, V domains shown)
VH: DVQLQESGPGLVKPSQSLSLTCTVTGYSITSDYAWNWIRQFPGNKLEWMGYIIYSGSTSYNPSLNSRISITRDTSKNQFFLQLNSVTTEDTATYYCAREAYLYFDYWGQGTTLTVSS
VL: DIQMTQTTSSLSASLGDRVTISCRASQDINNYLNWYQQKPDGTVKLLIYYTSRLHSGVPSRFSGSGSGTDYSLTISNLEREDVATYFCQQGNTLPWTFGGGTKLEIK
The EC50 (read off the curve) is the concentration giving half of the maximal effect. Higher therefore signals weaker potency. A word on the EC50: it is the concentration needed to bring the measured effect to its halfway point. Low readings indicate greater potency, high ones weaker potency. On to B1, for which, in assay [1], the binding result is on record as “no binding (tested: 10 µg/ml)”. In assay [2], the “EC50 (read off the curve)” value was about 0.2 µg/mL. In addition, in assay [3], the Kd worked out at 0.527 nM. Moreover, the EC50 was found to be 0.335 µg/mL in assay [4] and 0.187 µg/mL in assay [5].
